This is an account of results in patent publication US20020193571A1 (published 2002).

The target of this assay is T1, human WSX receptor (hWSXR), antigen of the phage antigen-binding ELISA (human, UniProt P48357 22-841).
T1 construct: both panning antigens hold the ECD; also called huWSXR
T1 sequence: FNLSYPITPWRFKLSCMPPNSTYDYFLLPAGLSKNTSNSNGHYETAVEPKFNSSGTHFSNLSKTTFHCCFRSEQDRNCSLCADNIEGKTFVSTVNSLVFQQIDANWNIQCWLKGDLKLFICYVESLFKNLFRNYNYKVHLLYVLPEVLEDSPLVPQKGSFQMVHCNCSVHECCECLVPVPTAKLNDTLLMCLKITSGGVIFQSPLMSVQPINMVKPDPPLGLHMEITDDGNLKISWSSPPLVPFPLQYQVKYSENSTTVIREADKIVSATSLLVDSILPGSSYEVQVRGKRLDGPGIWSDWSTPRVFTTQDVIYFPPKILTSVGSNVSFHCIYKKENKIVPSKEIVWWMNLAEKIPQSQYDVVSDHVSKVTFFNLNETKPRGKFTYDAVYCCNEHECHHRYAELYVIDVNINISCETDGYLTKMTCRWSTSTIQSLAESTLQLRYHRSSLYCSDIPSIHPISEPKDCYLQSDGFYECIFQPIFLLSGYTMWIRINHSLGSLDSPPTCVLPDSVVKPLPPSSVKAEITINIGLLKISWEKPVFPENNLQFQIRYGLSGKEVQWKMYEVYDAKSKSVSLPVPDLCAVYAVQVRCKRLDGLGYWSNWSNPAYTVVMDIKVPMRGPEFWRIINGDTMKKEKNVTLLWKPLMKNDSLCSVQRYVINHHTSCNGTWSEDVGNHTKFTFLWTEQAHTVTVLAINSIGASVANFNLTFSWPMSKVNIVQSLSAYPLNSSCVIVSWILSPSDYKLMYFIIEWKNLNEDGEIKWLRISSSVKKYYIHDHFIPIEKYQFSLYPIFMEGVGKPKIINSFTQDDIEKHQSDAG
Nature of the assay: phage antigen-binding ELISA. (In an ELISA, binding on a coated surface is turned into a signal by an enzyme label.)

B1: agonist antibody clone #17 scFv (scFv)
scFv: QVRLQQSGGGLVQPGRSLRLSCAASGFTFDDYAMHWVRQAPGKGLEWVSGMTWNSGSIGYADSVKGRFTISRDNAKNSLYLQMNSLRAEDTAVYYCAREPHNTDAFDIWGRGTLVTVSSGGGGPGGGGSGGGGSDVVMTQSPSFLSAFVGDTITITCRASQGIYNYLAWYQQKPGKAPKLLIYAASTLQSGVPSRFSGSGSGTEFTLTISSLQPEDFGTYYCQQLISYPLTFGGGTKVEIK
notes: Human scFv from a phage library; tested as scFv phage and as soluble scFv
Take B1: the binding result is “binds”.

B2: agonist antibody clone #3 scFv (scFv)
scFv: EVQLVQSGAEVKKPGASVKVSCKASGYTFTGYYMYWVRQAPGQGLEWMGWINPNSGGTNYAQKFQGRVTMTRDTSIGTAYMELSRLSSDDTAVYYCARDRYYGSSAYHRGSYYMDVWGRGTLVTVSSGGGGTGGGGSGGGGSSELTQDPAVSVALGQTVRITCQGDSLRSYYASWYQQKPGQAPVLVIYGKNNRPSGIPDRFSGSSSGNTASLTITGAQAEDEADYYCNSRDSSGNHVVFGGGTKLTVL
notes: Human scFv from a phage library
As to B2, the binding result is “binds”.
